The text below walks through data of patent publication US20150010572A1 (SAMSUNG ELECTRONICS, published 2015).

Residue numbers refer to the chain shown, from its start.

Common to all, as to experiment: ELISA, antibody coated, 250 ng FLAG-tagged mutant Ang-2, anti-FLAG-HRP, OD450 relative to native Ang-2
Background: ELISA stands for enzyme-linked immunosorbent assay.

Test [1] addresses T1, mutant Ang-2 protein, S417 substituted with alanine (FLAG-tagged at N-terminal) (human, UniProt O15123 281-496, limits assumed).
T1 chain: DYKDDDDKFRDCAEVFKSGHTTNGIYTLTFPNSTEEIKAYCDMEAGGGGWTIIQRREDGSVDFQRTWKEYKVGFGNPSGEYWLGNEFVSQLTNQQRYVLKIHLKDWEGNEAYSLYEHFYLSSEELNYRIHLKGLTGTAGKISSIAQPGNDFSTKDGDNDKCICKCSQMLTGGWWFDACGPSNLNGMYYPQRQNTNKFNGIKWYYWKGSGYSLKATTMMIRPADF
The procedure: (§1) Each well of a 96-well MaxiSorp™ flat-bottom plate (Nunc) was coated with 50 ul (microliter) of 1000 nM antibodies (Example 2). Then, the plate was washed five times with a 0.05% (v/v) Tween-20 containing PBS (PBST) and blocked with a 1% (v/v) BSA containing PBS at a room temperature for 2 hours. 250 ng of each mutant Ang-2 protein obtained by substituting S417, Q418, P419, N421, 1434, D448, A449, P452, Y460, N467, K468, or F469 residue of Ang-2 protein tagged with a FLAG sequence ([…], Sigma) at its N-terminal with alanine was added to each well of the plate, which was then allowed to react at a room temperature for 2 hours.
(§2) The plate was washed five times with a 0.05% (v/v) Tween-20 containing PBS, reacted with an anti-FLAG antibody (SIGMA) conjugated with HRP which was diluted in a 1% (v/v) BSA containing PBS at a ratio of 1:5,000 (v/v) at a room temperature for 1 hour, and washed five times with a 0.1% (v/v) Tween-20 containing PBS.
(§3) Finally, 50 ul of TMB substrates (Cell signaling) was added to each well of the plate to induce color development reaction at a room temperature for 3 min. and the reaction was ceased by the addition of 50 ul of Stop solution (Cell signaling) and then, OD450 values were measured on a plate reader (Molecular Devices). By comparing binding affinities with mutated Ang-2 to those of unmutated Ang-2, each epitope of Ang-2 antibodies was identified. The thus obtained measurement results of the binding affinities (%) of mutant Ang-2 against the binding affinity of the native Ang-2 are shown in the following Table 9.

In test [2] the target is T2, mutant Ang-2 protein, D448 substituted with alanine (FLAG-tagged at N-terminal) (human, UniProt O15123 281-496, limits assumed).
T2 chain: T1 chain with A145S, D176A
The procedure:
as §1, §2, §3

Test [3] addresses T3, mutant Ang-2 protein, P452 substituted with alanine (FLAG-tagged at N-terminal) (human, UniProt O15123 281-496, limits assumed).
T3 chain: T1 chain with A145S, P180A
The procedure: as §1, §2, §3

Test [4] addresses T4, mutant Ang-2 protein, Y460 substituted with alanine (FLAG-tagged at N-terminal) (human, UniProt O15123 281-496, limits assumed).
T4 chain: T1 chain with A145S, Y188A
The procedure:
as §1, §2, §3

Test [5] deals with T5, mutant Ang-2 protein, K468 substituted with alanine (FLAG-tagged at N-terminal) (human, UniProt O15123 281-496, limits assumed).
T5 chain: T1 chain with A145S, K196A
The procedure:
as §1, §2, §3

In test [6] the target is T6, mutant Ang-2 protein, F469 substituted with alanine (FLAG-tagged at N-terminal) (human, UniProt O15123 281-496, limits assumed).
T6 chain: T1 chain with A145S, F197A
The procedure:
as §1, §2, §3

B1: SAIT-Ang-2-AB-m8B3 (antibody, V domains shown)
VH: DVQLQESGPGLVKPSQSLSLSCTVTGYSIASDYAWNWIRQFPGNKVEWMGYINYRGNTDYNPSLKSRSSINRDTSKNQFFLQLNSVTTGDTATYYCARGNFEGAMDYWGQGTSVTVSS
VL: TIVMTQTPKFLLVSAGDRITITCKASQSVSNDVAWYQQKPGQSPKLLIYYASNRYPGVPDRFTGSGYGTDFTFTISTVQAEDLAVYFCQQDYTSPWTFGGGTELEIK
notes: also called KCLRF-BP-00293
On to B1, for which the “% at RBD binding (mutant Ang-2 against native Ang-2)” value amounted to 95.4% in test [1]; 96.1% in test [2]; 102% in test [3]; 100% in test [4]; 105% in test [5]; 106% in test [6].

B2: SAIT-Ang-2-AB-m2E7 (antibody, V domains shown)
VH: DLQLQESGPGLVKPSQSLSLTCTVTGYSITSDYAWNWIRQFPGNKLEWMGYISYSGSTSYNPSLKSRISITRDTSKNQFFLQLNSLTTEDTATYYCARGDYGNYVGPMDYWGQGTSVTVSS
VL: B1 VL with T1S, I19V, Q37R, P56T, T93S, W96L, G100A, G101R, E103K, I106L
notes: also called KCLRF-BP-00294
In the case of B2, the “% at RBD binding (mutant Ang-2 against native Ang-2)” value in test [1] turned out to be 98.3%; in test [2], 96.9%; in test [3] it was 90.1%; in test [4] it was 98.7%; in test [5], 101%; in test [6], 102%.
